T1: CD32bF (FcγRIIbF) (UniProt P31994 43-217)
T1 chain: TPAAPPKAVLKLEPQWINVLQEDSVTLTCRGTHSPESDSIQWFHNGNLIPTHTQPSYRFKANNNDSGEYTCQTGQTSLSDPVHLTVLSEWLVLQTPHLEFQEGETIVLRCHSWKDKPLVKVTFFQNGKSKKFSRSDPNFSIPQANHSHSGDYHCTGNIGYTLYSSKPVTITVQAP

T2: CD32aH (FcγRIIaH) (UniProt P12318 34-217)
T2 chain: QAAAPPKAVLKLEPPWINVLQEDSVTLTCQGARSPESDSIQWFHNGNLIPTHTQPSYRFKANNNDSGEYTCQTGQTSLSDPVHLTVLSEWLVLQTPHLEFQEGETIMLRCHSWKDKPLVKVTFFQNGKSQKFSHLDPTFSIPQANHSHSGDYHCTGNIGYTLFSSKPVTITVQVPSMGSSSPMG

T3: FcγRIA (CD64) (UniProt P12314 16-292)
T3 chain: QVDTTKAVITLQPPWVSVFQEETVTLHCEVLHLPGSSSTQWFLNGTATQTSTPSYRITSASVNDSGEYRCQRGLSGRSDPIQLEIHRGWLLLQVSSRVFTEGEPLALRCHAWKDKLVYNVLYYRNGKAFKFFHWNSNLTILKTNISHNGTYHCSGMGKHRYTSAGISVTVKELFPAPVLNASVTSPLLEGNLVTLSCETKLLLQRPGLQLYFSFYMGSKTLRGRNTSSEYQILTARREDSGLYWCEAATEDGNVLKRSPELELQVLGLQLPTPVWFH

B1: D1.1 (ligand)
chain: MIETYNQTSPRSAATGLPISMKIFMYLLTVFLITQMIGSALFAVYLHRRLDKIEDERNLHEDFVFMKTIQRCNTGERSLSLLNCEEIKSQFEGFVKDIMLNKEETKKENSFEMQKGDQNPQIAAHVISEASSKTTSVLQWAEKGYYTMSNNLVTLENGKQLTVKRQGLYYIYAQVTFCSNREASSQAPFIASLCLKSPGRFERILLRAANTHSSAKPCGQQSIHLGGVFELQPGASVFVNVTDPSQVSHGTGFTSFGLLKL
B2: TNX02 anti-CD154 monoclonal antibody (antibody)
heavy: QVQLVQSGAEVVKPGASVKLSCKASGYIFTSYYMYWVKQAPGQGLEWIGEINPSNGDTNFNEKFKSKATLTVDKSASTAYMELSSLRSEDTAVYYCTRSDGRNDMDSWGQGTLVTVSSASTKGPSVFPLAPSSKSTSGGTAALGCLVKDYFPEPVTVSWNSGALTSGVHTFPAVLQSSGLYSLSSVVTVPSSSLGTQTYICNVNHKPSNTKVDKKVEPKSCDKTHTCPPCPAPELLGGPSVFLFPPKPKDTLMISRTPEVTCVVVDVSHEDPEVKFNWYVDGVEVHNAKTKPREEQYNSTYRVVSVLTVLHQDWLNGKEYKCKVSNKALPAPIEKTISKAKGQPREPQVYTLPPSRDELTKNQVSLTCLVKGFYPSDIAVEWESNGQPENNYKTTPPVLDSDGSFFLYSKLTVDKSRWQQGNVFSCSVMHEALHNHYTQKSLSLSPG
light: DIVLTQSPATLSVSPGERATISCRASQRVSSSTYSYMHWYQQKPGQPPKLLIKYASNLESGVPARFSGSGSGTDFTLTISSVEPEDFATYYCQHSWEIPPTFGGGTKLEIKRTVAAPSVFIFPPSDEQLKSGTASVVCLLNNFYPREAKVQWKVDNALQSGNSQESVTEQDSKDSTYSLSSTLTLSKADYEKHKVYACEVTHQGLSSPVTKSFNRGEC
B3: TNX01 anti-CD154 monoclonal antibody (antibody)
heavy: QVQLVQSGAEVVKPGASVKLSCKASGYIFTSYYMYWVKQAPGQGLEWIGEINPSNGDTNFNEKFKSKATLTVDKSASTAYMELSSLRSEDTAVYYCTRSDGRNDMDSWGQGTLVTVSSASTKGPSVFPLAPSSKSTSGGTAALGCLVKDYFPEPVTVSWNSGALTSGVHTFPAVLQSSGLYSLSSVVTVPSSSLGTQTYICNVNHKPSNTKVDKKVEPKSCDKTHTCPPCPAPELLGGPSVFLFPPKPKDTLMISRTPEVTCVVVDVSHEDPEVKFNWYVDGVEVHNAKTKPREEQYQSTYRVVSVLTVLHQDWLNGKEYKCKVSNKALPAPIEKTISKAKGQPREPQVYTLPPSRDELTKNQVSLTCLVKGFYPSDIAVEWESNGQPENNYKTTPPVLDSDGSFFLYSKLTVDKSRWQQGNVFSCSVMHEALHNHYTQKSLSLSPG
light: B2 light
B4: TNX03 anti-CD154 monoclonal antibody (antibody)
heavy: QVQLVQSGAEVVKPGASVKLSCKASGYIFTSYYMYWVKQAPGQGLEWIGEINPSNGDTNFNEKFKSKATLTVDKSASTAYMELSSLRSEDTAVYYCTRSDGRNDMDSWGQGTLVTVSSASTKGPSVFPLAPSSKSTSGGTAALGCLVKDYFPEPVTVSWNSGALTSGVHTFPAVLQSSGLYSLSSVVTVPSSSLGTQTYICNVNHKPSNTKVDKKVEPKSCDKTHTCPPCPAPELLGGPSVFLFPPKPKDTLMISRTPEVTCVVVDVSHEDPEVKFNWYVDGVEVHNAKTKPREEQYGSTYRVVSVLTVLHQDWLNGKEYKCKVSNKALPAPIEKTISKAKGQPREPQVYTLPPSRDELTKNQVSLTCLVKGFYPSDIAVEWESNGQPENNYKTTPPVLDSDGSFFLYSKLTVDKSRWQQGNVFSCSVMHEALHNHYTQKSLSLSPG
light: B2 light
B5: TNX05 anti-CD154 monoclonal antibody (antibody)
heavy: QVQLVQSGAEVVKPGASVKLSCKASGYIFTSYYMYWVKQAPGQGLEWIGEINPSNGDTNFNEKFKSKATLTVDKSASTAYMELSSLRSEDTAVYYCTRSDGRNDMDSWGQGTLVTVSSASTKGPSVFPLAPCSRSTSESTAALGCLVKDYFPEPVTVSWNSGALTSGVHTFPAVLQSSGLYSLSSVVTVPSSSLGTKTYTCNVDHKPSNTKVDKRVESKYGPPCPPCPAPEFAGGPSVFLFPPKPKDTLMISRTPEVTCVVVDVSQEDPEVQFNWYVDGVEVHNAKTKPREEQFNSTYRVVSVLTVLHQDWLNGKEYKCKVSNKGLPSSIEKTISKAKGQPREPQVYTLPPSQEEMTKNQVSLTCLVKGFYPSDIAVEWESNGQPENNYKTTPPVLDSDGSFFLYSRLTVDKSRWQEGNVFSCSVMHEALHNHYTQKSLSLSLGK
light: B2 light
B6: TNX04 anti-CD154 monoclonal antibody (antibody)
heavy: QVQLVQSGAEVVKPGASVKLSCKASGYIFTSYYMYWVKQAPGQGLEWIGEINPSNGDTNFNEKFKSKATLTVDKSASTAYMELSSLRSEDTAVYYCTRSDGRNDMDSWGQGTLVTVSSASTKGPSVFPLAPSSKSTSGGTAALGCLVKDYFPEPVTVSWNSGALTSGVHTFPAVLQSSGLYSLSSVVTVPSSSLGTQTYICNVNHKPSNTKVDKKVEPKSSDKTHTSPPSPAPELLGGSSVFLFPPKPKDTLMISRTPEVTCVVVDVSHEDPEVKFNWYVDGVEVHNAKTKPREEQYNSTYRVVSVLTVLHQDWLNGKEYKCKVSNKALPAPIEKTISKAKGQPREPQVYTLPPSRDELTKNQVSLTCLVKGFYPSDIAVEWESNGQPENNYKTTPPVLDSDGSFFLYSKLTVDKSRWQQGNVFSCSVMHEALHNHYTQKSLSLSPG
light: B2 light
B7: TNX08 anti-CD154 monoclonal antibody (antibody)
heavy: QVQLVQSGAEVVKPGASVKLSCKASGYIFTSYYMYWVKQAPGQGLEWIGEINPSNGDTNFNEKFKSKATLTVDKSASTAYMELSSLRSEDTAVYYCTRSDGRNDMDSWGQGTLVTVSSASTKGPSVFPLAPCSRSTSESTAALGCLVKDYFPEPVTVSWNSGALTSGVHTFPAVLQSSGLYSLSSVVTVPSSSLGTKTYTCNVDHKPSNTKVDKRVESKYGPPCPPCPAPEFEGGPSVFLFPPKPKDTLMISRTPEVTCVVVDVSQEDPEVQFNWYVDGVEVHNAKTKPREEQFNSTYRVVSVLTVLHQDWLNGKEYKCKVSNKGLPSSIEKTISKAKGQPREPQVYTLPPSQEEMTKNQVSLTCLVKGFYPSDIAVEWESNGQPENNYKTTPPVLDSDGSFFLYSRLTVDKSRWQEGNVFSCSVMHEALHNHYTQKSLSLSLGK
light: B2 light
B8: TNX12 anti-CD154 monoclonal antibody (antibody)
heavy: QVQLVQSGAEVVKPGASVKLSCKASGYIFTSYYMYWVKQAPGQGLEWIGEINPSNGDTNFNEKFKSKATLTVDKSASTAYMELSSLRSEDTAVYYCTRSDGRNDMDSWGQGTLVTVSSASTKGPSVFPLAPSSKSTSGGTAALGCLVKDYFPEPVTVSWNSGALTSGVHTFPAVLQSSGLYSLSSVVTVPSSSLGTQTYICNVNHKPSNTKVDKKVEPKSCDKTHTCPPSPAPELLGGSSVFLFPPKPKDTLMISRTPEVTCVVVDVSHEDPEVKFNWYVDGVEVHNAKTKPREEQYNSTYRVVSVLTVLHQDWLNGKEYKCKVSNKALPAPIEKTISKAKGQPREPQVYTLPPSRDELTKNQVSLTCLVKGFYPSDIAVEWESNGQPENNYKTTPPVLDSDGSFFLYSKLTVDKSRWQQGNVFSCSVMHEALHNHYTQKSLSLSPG
light: B2 light
B9: TNX07 anti-CD154 monoclonal antibody (antibody)
heavy: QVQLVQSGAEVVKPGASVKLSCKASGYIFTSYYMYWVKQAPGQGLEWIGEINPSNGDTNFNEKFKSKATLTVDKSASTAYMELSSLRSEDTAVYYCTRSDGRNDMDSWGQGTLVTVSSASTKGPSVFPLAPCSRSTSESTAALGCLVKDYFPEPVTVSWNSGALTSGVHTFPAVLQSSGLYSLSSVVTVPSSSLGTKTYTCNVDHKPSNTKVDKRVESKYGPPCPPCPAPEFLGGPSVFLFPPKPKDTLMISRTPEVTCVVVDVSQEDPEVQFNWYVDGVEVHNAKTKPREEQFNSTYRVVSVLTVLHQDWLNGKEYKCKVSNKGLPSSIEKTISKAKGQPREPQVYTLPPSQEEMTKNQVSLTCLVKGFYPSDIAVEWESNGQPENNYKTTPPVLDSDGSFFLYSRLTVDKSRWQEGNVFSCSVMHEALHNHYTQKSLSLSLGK
light: B2 light
B10: TNX06 anti-CD154 monoclonal antibody (antibody)
heavy: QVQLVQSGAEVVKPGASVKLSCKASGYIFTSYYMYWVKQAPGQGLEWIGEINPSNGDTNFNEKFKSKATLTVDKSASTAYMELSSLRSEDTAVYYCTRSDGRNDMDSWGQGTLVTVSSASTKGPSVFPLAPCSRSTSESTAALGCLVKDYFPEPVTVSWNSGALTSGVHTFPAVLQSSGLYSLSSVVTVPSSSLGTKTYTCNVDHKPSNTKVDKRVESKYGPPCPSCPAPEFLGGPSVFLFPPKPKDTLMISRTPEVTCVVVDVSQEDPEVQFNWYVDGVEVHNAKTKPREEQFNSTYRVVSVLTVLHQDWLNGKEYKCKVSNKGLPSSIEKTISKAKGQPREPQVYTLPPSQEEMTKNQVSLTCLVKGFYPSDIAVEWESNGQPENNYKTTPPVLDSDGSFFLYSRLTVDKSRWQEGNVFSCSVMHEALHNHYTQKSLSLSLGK
light: B2 light
B11: TNX10 anti-CD154 monoclonal antibody (antibody)
heavy: not shown
light: B2 light
B12: TNX13 anti-CD154 monoclonal antibody (antibody)
heavy: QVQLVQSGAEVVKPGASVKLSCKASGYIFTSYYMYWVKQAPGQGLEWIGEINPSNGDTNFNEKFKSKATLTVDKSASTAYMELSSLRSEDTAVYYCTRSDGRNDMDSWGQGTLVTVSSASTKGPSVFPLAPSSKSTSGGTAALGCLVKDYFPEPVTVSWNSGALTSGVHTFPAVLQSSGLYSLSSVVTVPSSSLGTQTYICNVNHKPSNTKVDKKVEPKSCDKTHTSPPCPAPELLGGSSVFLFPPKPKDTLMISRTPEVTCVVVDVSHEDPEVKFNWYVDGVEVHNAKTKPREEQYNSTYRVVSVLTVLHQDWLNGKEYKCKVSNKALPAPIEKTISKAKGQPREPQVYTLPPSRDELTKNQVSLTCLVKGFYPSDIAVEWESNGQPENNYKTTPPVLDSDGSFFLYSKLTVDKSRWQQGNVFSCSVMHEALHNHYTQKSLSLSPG
light: B2 light
B13: TNX11 anti-CD154 monoclonal antibody (antibody)
heavy: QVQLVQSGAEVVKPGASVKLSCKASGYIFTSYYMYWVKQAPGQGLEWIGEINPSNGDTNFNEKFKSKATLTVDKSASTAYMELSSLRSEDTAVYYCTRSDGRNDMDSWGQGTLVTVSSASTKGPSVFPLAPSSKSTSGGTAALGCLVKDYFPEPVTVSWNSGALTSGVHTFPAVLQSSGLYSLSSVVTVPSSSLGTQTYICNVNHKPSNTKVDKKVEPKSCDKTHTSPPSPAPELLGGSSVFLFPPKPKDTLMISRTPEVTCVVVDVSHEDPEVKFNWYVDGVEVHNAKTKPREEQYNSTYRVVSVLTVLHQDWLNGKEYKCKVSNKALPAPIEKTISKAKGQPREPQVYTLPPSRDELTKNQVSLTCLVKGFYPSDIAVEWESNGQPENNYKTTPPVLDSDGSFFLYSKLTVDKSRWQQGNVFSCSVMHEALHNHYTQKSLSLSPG
light: B2 light
B14: TNX09 anti-CD154 monoclonal antibody (antibody)
heavy: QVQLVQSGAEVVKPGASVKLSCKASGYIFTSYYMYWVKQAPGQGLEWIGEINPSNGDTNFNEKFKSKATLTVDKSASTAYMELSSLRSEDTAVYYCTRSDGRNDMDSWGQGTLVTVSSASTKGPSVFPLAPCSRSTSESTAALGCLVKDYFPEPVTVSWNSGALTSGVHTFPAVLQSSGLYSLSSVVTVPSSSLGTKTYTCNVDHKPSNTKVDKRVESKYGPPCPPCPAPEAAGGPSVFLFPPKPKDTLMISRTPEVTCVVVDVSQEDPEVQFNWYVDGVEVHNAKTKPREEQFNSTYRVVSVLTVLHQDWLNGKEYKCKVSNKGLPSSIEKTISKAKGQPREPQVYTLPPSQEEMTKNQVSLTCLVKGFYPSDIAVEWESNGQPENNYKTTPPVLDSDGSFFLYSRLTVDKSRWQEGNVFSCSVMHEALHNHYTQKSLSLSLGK
light: B2 light

Each binder was assayed against Mouse anti hCD40L (assay: FACS cell binding; apparent Kd).

| Kd [µM] | Binder |
| --- | --- |
| 0.00039 | B1 |

Biological target: T1, CD32bF (FcγRIIbF)
Test: SPR

| Kd [µM] | Binder |
| --- | --- |
| 0.91 | B2 |
| > 12 | B3 |
| > 12 | B4 |
| 4.9 | B5 |
| 18 | B6 |

Biological target: T2, CD32aH (FcγRIIaH)
Test: SPR

| Kd [µM] | Binder |
| --- | --- |
| 0.5 | B2 |
| > 12 | B3 |
| > 12 | B4 |
| 7.17 | B5 |
| 36.6 | B6 |

These binders were tested against T4, CD16aF (FcγRIIIaF) (UniProt P08637 17-208) (assay: SPR).
T4 sequence (P08637 17-208): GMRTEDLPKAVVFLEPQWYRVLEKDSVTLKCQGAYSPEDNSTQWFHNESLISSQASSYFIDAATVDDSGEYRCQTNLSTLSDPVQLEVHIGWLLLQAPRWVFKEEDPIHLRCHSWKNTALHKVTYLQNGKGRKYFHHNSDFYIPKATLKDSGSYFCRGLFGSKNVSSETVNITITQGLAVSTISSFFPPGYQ

| Kd [µM] | Binder |
| --- | --- |
| 1.7 | B2 |
| > 5 | B3 |
| > 5 | B4 |
| 8.11 | B5 |
| > 5 | B6 |

The binders below were run against T5, CD16aV (FcγRIIIaV) (UniProt P08637 17-208) (assay: SPR).
T5 sequence (P08637 17-208 F176V): as the sequence (P08637 17-208) above, with F160V counted along it

| Kd [µM] | Binder |
| --- | --- |
| 0.32 | B2 |
| > 5 | B3 |
| > 5 | B4 |
| 6.04 | B5 |
| 18.7 | B6 |

Biological target: T3, FcγRIA (CD64)
Test: SPR; avid

| Kd [µM] | Binder |
| --- | --- |
| 0.0765 | B3 |
| 0.092 | B4 |
| 0.0087 | B5 |
| 0.00033 | B6 |

Biological target: T1, CD32bF (FcγRIIbF)
Test: SPR
Remark: another data set of the same source

| Kd [µM] | Binder |
| --- | --- |
| 1.03 | B2 |
| 4.2 | B7 |
| 8.41 | B8 |
| 2.45 | B9 |
| 2.53 | B10 |
| > 12 | B11 |
| 5.84 | B12 |
| > 12 | B13 |
| > 12 | B14 |

Biological target: T2, CD32aH (FcγRIIaH)
Test: SPR
Remark: another data set of the same source

| Kd [µM] | Binder |
| --- | --- |
| 0.525 | B2 |
| 9.03 | B7 |
| > 12 | B8 |
| 3.01 | B9 |
| 3.19 | B10 |
| > 12 | B11 |
| 8.95 | B12 |
| > 12 | B13 |
| > 12 | B14 |

Biological target: T4, CD16aF (FcγRIIIaF)
Test: SPR
Remark: another data set of the same source

| Kd [µM] | Binder |
| --- | --- |
| 1.81 | B2 |
| 4.44 | B7 |
| > 5 | B8 |
| 3.66 | B9 |
| 3.17 | B10 |
| > 5 | B11 |
| > 5 | B12 |
| > 5 | B13 |
| > 5 | B14 |

Biological target: T5, CD16aV (FcγRIIIaV)
Test: SPR
Remark: another data set of the same source

| Kd [µM] | Binder |
| --- | --- |
| 0.333 | B2 |
| 3.56 | B7 |
| > 5 | B8 |
| 3.01 | B9 |
| 2.09 | B10 |
| 4.63 | B11 |
| > 5 | B12 |
| > 5 | B13 |
| 3.77 | B14 |

Biological target: T3, FcγRIA (CD64)
Test: SPR

| Kd [µM] | Binder |
| --- | --- |
| 0.103 | B7 |
| 0.000259 | B8 |
| 0.000253 | B9 |
| 0.000285 | B10 |
| 0.0687 | B11 |
| 0.000222 | B12 |
| 0.000479 | B13 |
| 0.147 | B14 |

Biological target: T3, FcγRIA (CD64)
Test: SPR; avid
Remark: another data set of the same source

| Kd [nM] | Binder |
| --- | --- |
| 0.0288 | B2 |
| 56 | B3 |
| 89.8 | B4 |
| 8.8 | B5 |
| 0.309 | B6 |

Each binder was assayed against Mouse_anti-CD40L (assay: flow cytometry).

| Kd [µM] | Binder |
| --- | --- |
| 0.000339 | B1 |
